Experimental data from US20230301998A1 (SANFORD BURNHAM PREBYS MEDICAL DISCOVERY INSTITUTE, published 2023).

Columns and labels:
FLNA = biological target: T1, FLNA (human, UniProt P21333 2-2647, limits assumed); assay: Flag IP of Flag-SHARPIN from WM115 lysate, on-bead tryptic digestion, LC/MS-MS
T1 construct: endogenous protein co-purified from WM115 lysate
Experimental: (§1) To identify SHARPIN-interacting proteins, WM115 cells were transfected with Flag-tagged SHARPIN or control empty plasmid. Cell lysates were prepared using 1% Triton X-100 buffer [50 mM Tris-HCl, pH7.4, 1% (v/v) Triton X-100, 150 mM NaCl, 1 mM EDTA, and protease and phosphatase inhibitor cocktails (Thermo Fisher Scientific)]. Lysates were pre-cleared with protein A/G beads (Santa Cruz Biotechnology) for 1 h at 4° C. followed by immunoprecipitation using FLAG-M2-agarose beads (Sigma-Aldrich) overnight at 4° C. Beads were then washed with lysis buffer and TBS containing lx protease inhibitor cocktail before being subjected to on-bead tryptic digestion followed by mass spectrometry. In Vitro Methylation Assay.

XRCC5 = biological target: T2, XRCC5 (human, UniProt P13010 2-732); assay: as above
T2 construct: endogenous protein co-purified from WM115 lysate
T2 sequence (P13010 2-732 limits assumed): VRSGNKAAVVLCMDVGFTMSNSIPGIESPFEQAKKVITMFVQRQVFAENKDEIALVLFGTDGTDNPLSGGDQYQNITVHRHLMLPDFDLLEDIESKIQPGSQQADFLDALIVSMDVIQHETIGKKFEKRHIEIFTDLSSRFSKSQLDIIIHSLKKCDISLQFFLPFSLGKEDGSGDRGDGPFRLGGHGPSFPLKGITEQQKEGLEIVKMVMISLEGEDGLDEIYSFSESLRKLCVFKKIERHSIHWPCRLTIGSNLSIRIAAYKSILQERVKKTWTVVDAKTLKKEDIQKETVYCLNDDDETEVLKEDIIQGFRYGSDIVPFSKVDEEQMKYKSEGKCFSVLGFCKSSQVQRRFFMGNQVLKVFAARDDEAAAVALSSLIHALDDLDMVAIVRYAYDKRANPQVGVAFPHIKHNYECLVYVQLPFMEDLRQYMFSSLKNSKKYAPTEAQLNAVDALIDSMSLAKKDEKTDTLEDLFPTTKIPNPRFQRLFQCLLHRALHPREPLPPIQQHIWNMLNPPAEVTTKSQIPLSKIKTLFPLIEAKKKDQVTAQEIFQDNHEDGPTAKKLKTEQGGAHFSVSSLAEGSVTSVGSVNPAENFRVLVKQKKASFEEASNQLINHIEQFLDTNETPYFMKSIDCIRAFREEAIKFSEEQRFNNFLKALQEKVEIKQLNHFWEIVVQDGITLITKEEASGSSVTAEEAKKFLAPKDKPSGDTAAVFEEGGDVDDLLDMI
Experimental: as §1

PARP1 = biological target: T3, PARP1 (human, UniProt P09874 2-1014); assay: as above
T3 construct: endogenous protein co-purified from WM115 lysate
T3 sequence (P09874 2-1014 limits assumed): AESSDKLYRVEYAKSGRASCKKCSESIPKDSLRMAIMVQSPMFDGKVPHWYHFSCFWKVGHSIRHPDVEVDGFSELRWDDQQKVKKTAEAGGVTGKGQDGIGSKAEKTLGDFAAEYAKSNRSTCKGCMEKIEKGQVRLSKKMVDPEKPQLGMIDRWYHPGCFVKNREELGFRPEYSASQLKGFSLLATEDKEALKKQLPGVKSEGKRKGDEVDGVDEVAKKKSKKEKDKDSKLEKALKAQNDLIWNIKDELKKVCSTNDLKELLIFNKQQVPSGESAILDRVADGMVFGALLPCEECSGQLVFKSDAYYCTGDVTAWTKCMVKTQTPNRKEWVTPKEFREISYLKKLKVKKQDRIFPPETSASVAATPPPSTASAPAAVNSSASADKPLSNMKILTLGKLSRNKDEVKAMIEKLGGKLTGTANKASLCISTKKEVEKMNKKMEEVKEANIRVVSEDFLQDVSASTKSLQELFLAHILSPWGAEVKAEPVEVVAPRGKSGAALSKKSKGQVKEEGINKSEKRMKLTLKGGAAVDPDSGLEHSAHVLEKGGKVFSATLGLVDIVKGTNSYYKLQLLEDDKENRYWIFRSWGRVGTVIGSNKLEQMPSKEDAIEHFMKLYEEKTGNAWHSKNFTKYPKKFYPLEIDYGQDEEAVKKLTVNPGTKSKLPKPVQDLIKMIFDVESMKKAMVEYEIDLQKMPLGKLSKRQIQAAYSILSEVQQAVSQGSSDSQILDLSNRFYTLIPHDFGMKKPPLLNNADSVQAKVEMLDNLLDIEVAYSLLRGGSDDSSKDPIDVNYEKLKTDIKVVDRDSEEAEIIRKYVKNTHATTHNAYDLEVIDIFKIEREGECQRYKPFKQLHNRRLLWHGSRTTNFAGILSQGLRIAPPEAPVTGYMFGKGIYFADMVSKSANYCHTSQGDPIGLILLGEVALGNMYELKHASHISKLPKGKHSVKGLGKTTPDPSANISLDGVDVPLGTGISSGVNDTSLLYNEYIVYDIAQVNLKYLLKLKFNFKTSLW
Experimental: as §1

MYH9 = biological target: T4, MYH9 (human, UniProt P35579 2-1960); assay: as above
T4 construct: endogenous protein co-purified from WM115 lysate
Experimental: as §1

FASN = biological target: T5, FASN (human, UniProt P49327 1-2511); assay: as above
T5 construct: endogenous protein co-purified from WM115 lysate
T5 sequence (P49327 whole entry): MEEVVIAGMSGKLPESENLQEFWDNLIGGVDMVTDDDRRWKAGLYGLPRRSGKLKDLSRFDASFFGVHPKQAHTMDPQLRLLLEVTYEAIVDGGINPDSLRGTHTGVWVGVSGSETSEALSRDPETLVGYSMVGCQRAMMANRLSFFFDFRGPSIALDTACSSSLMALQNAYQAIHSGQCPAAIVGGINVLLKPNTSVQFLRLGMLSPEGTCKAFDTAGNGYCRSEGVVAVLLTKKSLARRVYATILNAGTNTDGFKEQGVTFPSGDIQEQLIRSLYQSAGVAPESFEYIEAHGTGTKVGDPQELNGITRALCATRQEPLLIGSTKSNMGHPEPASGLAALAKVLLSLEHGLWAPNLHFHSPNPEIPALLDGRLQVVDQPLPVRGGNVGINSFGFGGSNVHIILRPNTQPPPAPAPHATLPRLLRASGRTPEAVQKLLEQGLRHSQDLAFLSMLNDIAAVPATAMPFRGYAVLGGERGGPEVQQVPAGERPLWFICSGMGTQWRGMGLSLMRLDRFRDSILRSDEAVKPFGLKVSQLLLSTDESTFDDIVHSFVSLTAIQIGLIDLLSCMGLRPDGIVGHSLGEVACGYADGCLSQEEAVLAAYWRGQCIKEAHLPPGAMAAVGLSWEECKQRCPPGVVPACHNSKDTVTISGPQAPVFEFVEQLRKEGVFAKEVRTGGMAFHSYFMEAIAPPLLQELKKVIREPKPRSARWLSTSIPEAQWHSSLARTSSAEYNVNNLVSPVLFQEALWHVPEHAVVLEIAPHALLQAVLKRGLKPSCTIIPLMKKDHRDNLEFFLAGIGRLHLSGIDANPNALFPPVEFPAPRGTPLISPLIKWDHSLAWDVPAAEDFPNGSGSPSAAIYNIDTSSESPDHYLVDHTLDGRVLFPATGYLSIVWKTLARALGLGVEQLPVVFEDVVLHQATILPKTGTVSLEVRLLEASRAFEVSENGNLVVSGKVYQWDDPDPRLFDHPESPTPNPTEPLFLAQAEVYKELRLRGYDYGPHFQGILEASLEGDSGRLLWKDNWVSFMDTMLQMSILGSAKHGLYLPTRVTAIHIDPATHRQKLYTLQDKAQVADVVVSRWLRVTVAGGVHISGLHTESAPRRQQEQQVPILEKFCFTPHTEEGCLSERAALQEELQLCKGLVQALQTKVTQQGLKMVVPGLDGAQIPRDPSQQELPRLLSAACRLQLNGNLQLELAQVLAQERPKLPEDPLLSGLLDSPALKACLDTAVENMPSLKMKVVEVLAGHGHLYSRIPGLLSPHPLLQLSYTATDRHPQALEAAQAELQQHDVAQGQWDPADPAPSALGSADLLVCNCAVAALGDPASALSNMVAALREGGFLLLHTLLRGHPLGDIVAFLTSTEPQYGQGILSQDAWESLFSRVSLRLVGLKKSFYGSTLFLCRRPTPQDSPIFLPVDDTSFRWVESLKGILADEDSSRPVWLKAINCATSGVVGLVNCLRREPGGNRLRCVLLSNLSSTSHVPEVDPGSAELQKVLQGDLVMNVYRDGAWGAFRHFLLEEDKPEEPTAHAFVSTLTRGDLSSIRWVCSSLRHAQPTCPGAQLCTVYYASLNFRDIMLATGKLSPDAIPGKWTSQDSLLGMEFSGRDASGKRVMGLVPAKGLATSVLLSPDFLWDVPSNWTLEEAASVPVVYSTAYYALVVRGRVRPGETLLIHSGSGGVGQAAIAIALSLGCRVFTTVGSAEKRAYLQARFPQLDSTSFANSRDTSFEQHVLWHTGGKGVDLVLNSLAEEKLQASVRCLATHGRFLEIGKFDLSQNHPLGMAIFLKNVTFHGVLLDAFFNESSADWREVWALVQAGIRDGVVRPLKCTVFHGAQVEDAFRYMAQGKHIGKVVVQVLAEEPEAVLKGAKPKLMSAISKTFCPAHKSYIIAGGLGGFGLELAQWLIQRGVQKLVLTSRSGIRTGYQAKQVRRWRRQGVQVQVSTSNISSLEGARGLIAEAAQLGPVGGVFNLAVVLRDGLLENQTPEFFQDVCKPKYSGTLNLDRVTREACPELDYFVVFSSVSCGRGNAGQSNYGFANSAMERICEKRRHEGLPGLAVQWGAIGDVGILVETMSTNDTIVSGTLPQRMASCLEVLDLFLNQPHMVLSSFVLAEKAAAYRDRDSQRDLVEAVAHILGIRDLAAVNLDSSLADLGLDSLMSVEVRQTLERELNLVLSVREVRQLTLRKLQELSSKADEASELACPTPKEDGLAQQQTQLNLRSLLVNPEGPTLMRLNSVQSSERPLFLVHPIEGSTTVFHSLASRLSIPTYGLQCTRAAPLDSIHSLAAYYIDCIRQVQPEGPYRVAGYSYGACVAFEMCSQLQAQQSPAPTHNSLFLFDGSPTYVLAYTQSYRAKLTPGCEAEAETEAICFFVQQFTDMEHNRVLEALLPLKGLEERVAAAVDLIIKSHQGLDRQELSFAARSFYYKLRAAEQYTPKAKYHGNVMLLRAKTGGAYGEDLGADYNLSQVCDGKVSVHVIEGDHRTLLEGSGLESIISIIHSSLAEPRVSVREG
Experimental: as §1

HNRNPU = biological target: T6, HNRNPU (human, UniProt Q00839 2-825, limits assumed); assay: as above
T6 construct: endogenous protein co-purified from WM115 lysate
Experimental: as §1

HSPA9 = biological target: T7, HSPA9 (human, UniProt P38646 47-679); assay: as above
T7 construct: endogenous protein co-purified from WM115 lysate
T7 sequence (P38646 47-679 limits assumed): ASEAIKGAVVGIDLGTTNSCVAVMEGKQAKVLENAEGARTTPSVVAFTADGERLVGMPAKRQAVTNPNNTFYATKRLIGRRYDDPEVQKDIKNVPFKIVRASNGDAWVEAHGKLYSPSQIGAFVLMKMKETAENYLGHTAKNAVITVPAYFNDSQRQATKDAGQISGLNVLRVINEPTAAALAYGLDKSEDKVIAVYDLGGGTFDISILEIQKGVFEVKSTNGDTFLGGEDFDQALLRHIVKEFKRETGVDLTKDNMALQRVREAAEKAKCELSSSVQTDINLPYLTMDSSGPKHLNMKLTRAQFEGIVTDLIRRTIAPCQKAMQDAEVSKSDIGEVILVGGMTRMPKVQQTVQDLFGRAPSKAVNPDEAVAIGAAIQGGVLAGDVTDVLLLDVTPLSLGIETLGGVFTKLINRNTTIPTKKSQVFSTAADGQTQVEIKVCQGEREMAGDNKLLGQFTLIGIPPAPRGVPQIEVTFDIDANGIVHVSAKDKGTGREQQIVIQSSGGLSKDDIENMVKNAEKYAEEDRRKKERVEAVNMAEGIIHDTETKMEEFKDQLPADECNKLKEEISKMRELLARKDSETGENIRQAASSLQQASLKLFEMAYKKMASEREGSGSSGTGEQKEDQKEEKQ
Experimental: as §1

DYNC1H1 = biological target: T8, DYNC1H1 (human, UniProt Q14204 2-4646); assay: as above
T8 construct: endogenous protein co-purified from WM115 lysate
Experimental: as §1

RNF31 = biological target: T9, RNF31 (human, UniProt Q96EP0 1-1072); assay: as above
T9 construct: endogenous protein co-purified from WM115 lysate
T9 sequence (looked up): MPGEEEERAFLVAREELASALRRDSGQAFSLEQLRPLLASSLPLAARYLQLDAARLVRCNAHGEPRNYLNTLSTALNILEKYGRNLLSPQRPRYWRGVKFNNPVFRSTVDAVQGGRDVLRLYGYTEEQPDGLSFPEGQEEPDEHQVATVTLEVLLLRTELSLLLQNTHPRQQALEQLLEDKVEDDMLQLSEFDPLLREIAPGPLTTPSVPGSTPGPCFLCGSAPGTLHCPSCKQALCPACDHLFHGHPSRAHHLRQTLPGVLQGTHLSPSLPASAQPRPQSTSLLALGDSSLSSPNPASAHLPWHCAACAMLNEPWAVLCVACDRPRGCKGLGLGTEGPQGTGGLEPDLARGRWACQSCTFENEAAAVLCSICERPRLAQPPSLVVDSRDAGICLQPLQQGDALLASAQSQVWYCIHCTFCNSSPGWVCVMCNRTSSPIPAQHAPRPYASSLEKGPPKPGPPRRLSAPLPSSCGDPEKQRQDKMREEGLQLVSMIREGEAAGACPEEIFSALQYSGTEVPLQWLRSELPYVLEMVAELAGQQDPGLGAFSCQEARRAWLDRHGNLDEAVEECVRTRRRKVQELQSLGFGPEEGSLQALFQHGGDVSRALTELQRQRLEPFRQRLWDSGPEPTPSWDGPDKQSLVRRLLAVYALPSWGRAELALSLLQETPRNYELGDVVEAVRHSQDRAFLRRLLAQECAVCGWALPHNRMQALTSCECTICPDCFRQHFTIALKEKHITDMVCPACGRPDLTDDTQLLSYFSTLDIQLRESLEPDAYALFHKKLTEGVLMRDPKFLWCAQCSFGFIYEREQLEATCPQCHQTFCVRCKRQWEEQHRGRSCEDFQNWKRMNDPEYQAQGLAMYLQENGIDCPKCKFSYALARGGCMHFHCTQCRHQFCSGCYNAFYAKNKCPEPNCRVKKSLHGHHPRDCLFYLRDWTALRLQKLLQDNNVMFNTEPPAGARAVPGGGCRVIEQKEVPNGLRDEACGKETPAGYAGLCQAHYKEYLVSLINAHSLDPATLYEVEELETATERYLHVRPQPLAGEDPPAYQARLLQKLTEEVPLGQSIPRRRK
Experimental: as §1

[1] = biological target: T10, Interferon-activable protein 204 (Mus musculus) (IFI204) (Mus musculus, UniProt P0DOV2 1-619); assay: Flag IP and immunoblot of transfected HEK293T lysates
T10 construct: also called IF204
T10 sequence: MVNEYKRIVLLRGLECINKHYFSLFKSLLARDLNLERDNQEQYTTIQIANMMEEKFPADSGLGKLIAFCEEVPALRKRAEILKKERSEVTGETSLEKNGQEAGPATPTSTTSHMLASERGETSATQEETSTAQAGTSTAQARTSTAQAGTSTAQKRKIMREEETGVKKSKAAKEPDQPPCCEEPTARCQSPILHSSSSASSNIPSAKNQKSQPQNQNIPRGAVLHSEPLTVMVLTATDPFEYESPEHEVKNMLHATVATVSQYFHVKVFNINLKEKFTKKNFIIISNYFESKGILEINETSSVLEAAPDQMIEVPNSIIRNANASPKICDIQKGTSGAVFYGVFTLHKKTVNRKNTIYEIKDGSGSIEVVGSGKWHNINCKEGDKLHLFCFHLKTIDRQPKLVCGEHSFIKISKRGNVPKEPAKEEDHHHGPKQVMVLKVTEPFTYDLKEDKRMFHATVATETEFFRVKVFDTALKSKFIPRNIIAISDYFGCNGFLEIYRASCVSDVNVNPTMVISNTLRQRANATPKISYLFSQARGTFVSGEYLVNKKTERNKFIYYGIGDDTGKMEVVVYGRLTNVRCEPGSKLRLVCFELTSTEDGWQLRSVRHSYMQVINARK

Measured: binding result

B1: Flag-tagged SHARPIN (other, human, UniProt Q9H0F6 1-387, looked up)
chain: MAPPAGGAAAAASDLGSAAVLLAVHAAVRPLGAGPDAEAQLRRLQLSADPERPGRFRLELLGAGPGAVNLEWPLESVSYTIRGPTQHELQPPPGGPGTLSLHFLNPQEAQRWAVLVRGATVEGQNGSKSNSPPALGPEACPVSLPSPPEASTLKGPPPEADLPRSPGNLTEREELAGSLARAIAGGDEKGAAQVAAVLAQHRVALSVQLQEACFPPGPIRLQVTLEDAASAASAASSAHVALQVHPHCTVAALQEQVFSELGFPPAVQRWVIGRCLCVPERSLASYGVRQDGDPAFLYLLSAPREAPATGPSPQHPQKMDGELGRLFPPSLGLPPGPQPAASSLPSPLQPSWSCPSCTFINAPDRPGCEMCSTQRPCTWDPLAAAST
notes: also called Flag-SHARPIN; not shown: FLAG tag
binds: all assays above
